From article PMC5426288, “Crystal structure of thermostable alkylsulfatase SdsAP from Pseudomonas sp. S9” (Bioscience Reports, 2017) come the findings set out here.

Substrate in data set [1]: CCCCCCCCCCCCOS(=O)(=O)O
Briefly: isothermal titration calorimetry, enzyme rate assay. It is filed as biochemical, Pseudomonas sp. The note with it: 25 °C, 25 mM Tris/HCl pH 8.0, 200 mM NaCl, 25 nM enzyme.

Data set [2] deals with the molecule itself. Briefly: crystal structure; SdsAP at 27.5 mg/ml, sitting drop vapor diffusion at 293 K, 0.1 M sodium acetate pH 4.5, 0.05 M magnesium acetate, 20% PEG 4000; two monomers in the asymmetric unit; 1.76 Å.

B1: alkylsulfatase SdsAP from Pseudomonas sp. S9 (enzyme, UniProt F2WP51 42-674, looked up)
chain: AETAKPATDATKAANDALLKELPFDDKTSFDLAHKGFIAPLPAEPIKGEKGNMIWDPSKYGFIKEGEAAPDTTNPSLWRQSQLINISGLFEVTDGIYQVRNYDLSNMTIVEGKDGITIFDPLISQETAKAALDLYYKHRPKKPVVAVIYTHSHVDHYGGVRGVVDEADVKAGKVKIYAPLGFLEHAVAENVMAGTAMSRRASYMYGNLLPPDAKGQLGAGLGTTTSAGTVTLIPPTDIIKETGETHVIDGLTYEFMYAPGSEAPAEMLYYIKEKKALNAAEDSTHTLHNTYSLRGAKIRDPLAWSKYLNEALKLWGDDVQVMYAMHHWPVWGNKEVREQLSLQRDMYRYINDETLRLANKGYTMTEIAEQVKLPKKIATKFSNRGYYGSLNHNVKATYVLYLGWFIGNPATLWELPPADKAKRYVEMMGGADAVLKKAKEYYDKGDFRWVAEVVNHVVFAEPNNQAAKNMQADALEQLGYQAESGPWRNFYLTGAQELRNGVQQLPTPDTASPDTVKAMDLDLFFDFLAMRLKGPDVADKHITLNLDFTDLKQKYTLEMVNGVLNHTEGMQAKNADATVTLTRETLNNVMLKQTTLKDAESSGDIKIEGDKGKLEELMSYMDNFDFWFNIVTP
notes: SdsAP, type III alkylsulfatase of Pseudomonas sp; S9 (F2WP51); N-terminal signal peptide of 41 amino acids truncated; domains in the structure: 42-401 metallo-beta-lactamase like, 402-543 dimerization, 544-674 SCP-2-like; that this removes the His tag is inferred; source: E. coli BL21 (DE3), purified (IMAC, thrombin digestion, Mono Q, Superdex 200)
One may read the Km as the concentration of substrate that gives half-maximal velocity. What is called kcat is the number of substrate molecules converted per active site and unit of time at saturation. A word on the stoichiometry N: it is the number of molecules, sites or subunits per partner or assembly. In the case of B1, in data set [1], the Km worked out at 74.2 ± 10 µM and the kcat came to 4.88 ± 0.17 s⁻¹. Moreover, in data set [2], the “stoichiometry N” value came out at 2.
